Reference: patent US20110165161A1, “ANTI-EPCAM ANTIBODIES THAT INDUCE APOPTOSIS OF CANCER CELLS AND METHODS USING SAME” (priority 2009, published 2011)
Residue numbers refer to the chain shown, from its start.

B1: 6D11: murine anti-human EpCAM monoclonal antibody (IgG1, K), hybridoma m338-6D11.8; VH SEQ ID NO:23, VL SEQ ID NO:25 (antibody, listed as Mus musculus, V domains shown)
VH: EVQLVESGGDLVKPGGSLKLSCAASGFAFDSYGMSWIRQTPGTRLEWVATISSGGYYTYYEDNVKGRFIISRDNAKNTLDLQMSGLKSEDAATYYCARRGNYDVDYYAMDYWGQGTSVIVSS
VL: DVVLTQIPLSLPVSLGDQASISCRSSQSLEHSNGNTYLHWYLQKPGQSPKLLIYKVSNRFSGVPDRFSGSGSGTDFTLKISRVEAEDLGVYFCSQSTHVPPWTFGGGTKLEFKR
B2: 4D2: murine anti-human EpCAM monoclonal antibody (IgG1, K), hybridoma m338-4D2.20; VH SEQ ID NO:19, VL SEQ ID NO:21 (antibody, listed as Mus musculus, V domains shown)
VH: B1 VH with I37V, T43K, E61Q, N63S, I69T, I70T, G85S, A91S, T93I, I119T
VL: B1 VL with L4M, I7T, E30V, K79R, F112I
B3: 2D11: murine anti-human EpCAM monoclonal antibody (IgG1, K), hybridoma m322-2D11.19; VH SEQ ID NO:15, VL SEQ ID NO:17 (antibody, listed as Mus musculus, V domains shown)
VH: QIQLVQSGPELKKPGETVKISCKASGYTFTNYGMNWVKQAPGKGLKWMGWINTNTGEATYVEEFKGRVVFSLETSASTAYLQINNLKNEDTATYFCARIGYVWYFDVWGAGTTVTVSS
VL: DIVMSQSPSSLAVSAGEKVTMSCKSSQSLFSSRTRKNYLAWYQQKPGQSPKLLIYWASTRESGVPDRFTGSGSGTDFTLTINSVQAEDLAVYYCKHSNNLFTFGSGTKLEIKR

Legend:
[1] = system: Ovarian cancer NIH:OVCAR-3 cells; assay: Antibody cytotoxicity assay (Annexin V + PI), NIH:OVCAR-3; assay type: cell-based; conditions: 1, 3 and 10 μg/ml, overnight
Experimental: (§1) After a 17-20 hr incubation at 37° C., cells were stained with 0.3 μl of FITC-conjugated Annexin V (Strong Biotech Corp. Cat. No. AVK250) in 50 μl Annexin V binding buffer (Strong Biotech Corp. Cat. No. AVK250) at RT for 20 min. After wash, the cells were then stained with 0.3 μl of propidium iodide in 200 μl Annexin V binding buffer. Annexin V and Propidium Iodide were used as a joint indicator for cell death. The data were acquired with BD FACSCalibur based on an acquisition of 3,000-5,000 cells and analyzed with the Cell Quest software. The combined percentages of the Annexin V+/PI+, Annexin V+/PI− and Annexin V−/PI+populations were considered as dead cells.

[2] = system: Pharynx cancer FaDu cells; assay: Antibody cytotoxicity assay (Annexin V + PI), FaDu; assay type: cell-based; conditions: 1, 3 and 10 μg/ml, overnight
Experimental: as §1

[3] = system: Colorectal cancer DLD-1 cells; assay: Antibody cytotoxicity assay (Annexin V + PI), DLD-1; assay type: cell-based; conditions: 1, 3 and 10 μg/ml, overnight
Experimental: as §1

CHO parental cells = assay: FACS binding of anti-EpCAM antibodies to CHO parental cells; design: species or system Chinese hamster; conditions: antibody 0.1 μg/ml; HPS at 300x dilution
Experimental: 1×10^5 CHO/EpCAM or CHO parental cells were seeded in each well of a v-bottomed 96-well plate and incubated with purified anti-EpCAM antibodies or mouse IgG control antibody 9E10 at concentration of 0.1 μg/ml. A 300× dilution of human cell hyper-immune serum (HPS 300×) was used as binding positive control for both cell lines here. After 1 hr incubation at 4° C., cells were washed twice with 200 μl FACS buffer (1×PBS containing 1% FBS), stained with 100 μl of 1 μg/ml goat-anti-mouse IgG-PE (Southern Biotech, Cat. No. 1032-09) in FACS buffer and then incubated at 4° C. for 30 min. Cells were washed thrice with FACS buffer and analyzed by flow cytometry (BD LSR, BD Life Sciences).

[4] = system: Lung cancer NCI-H520 cells; assay: Antibody cytotoxicity assay (Annexin V + PI), NCI-H520; assay type: cell-based; conditions: 1, 3 and 10 μg/ml, overnight
Experimental: as §1

[5] = system: Gastric cancer NCI-N87 cells; assay: Antibody cytotoxicity assay (Annexin V + PI), NCI-N87; assay type: cell-based; conditions: 1, 3 and 10 μg/ml, overnight
Experimental: as §1

[6] = system: Prostate cancer LNCaP cells; assay: Antibody cytotoxicity assay (Annexin V + PI), LNCaP; assay type: cell-based; conditions: 1, 3 and 10 μg/ml, overnight
Experimental: as §1

[7] = system: Breast cancer T-47D cells; assay: Antibody cytotoxicity assay (Annexin V + PI), T-47D; assay type: cell-based; conditions: 1, 3 and 10 μg/ml, overnight
Experimental: as §1

[8] = system: NCI-H358 lung cancer cells; assay: Cell death in NCI-H358 lung cancer cells (Annexin V + PI); assay type: cell-based, human; conditions: mean of 5 experiments; mAb 10 μg/ml; 17 hr
Experimental: 5×10^4 NCI-H358 cells were seeded to each well of a 96-well plate, and then 10 μg/ml of anti-EpCAM or control (9E10) mAbs diluted in the medium was added into the cells. After a 17-hr incubation at 37° C., the cells were stained with 0.3 μl of FITC-conjugated Annexin V (Strong Biotech Corp. Cat. No. AVK250) in 50 μl Annexin V binding buffer (Strong Biotech Corp. Cat. No. AVK250) at RT for 20 min. After wash, the cells were then stained with 0.3 μl of propidium iodide in 200 μl Annexin V binding buffer. Annexin V and Propidium Iodide were used as a joint indicator for measuring cell death. The data were acquired with BD FACSCalibur based on an acquisition of 3,000-5,000 cells and analyzed with the Cell Quest software. The combined percentages of the Annexin V+/PI+, Annexin V+/PI− and Annexin V−/PI+populations were considered as dead cells.

Molecule	Induction of cell death (in words) [1]	Induction of cell death (in words) [2]	Induction of cell death (in words) [3]	Binding (FACS, Mean fluorescence intensity (MFI)) CHO (CHO parental cells)	Induction of cell death (in words) [4]	Induction of cell death (in words) [5]	Induction of cell death (in words) [6]	Induction of cell death (in words) [7]	% of Annexin V + PI staining (untreated background subtracted), Mean ± SEM [8] [%]
B1	substantial cell death	substantial cell death	substantial cell death	5	substantial cell death	substantial cell death	substantial cell death	substantial cell death	42.4 ± 1.0
B2	substantial cell death	substantial cell death	substantial cell death	5	substantial cell death	substantial cell death	substantial cell death	substantial cell death	43.6 ± 0.9
B3	substantial cell death	substantial cell death	substantial cell death	6	substantial cell death	substantial cell death	substantial cell death	substantial cell death	39.4 ± 3.0
